Source: patent publication US20120165265A1 (published 2012)

Target: T1, Flag-myc-CAD (Homo sapiens (Human), UniProt Q13586 342-448)
T1 construct: also called Flag-tagged CAD; not shown: Flag and myc tags from the custom vector pDEST-pGWI-Flag-Myc-x
Test: co-immunoprecipitation from HEK 293T cells
Procedure: Immunoprecipitation and Immunoblot Analysis. […] Lysates were spun at 12,000 rpm for 10 min, and the supernatant was incubated with anti-Flag M2 agarose beads (Sigma), or anti-myc or -HA antibody followed by IgG agarose beads (Pierce). Lysates and immunoprecipitates were subjected to SDS-PAGE, probed with HRP-conjugated secondary antibody and detected by enhanced chemiluminescence (Pierce).
STIM1-CAD BINDS TO THE N- AND C-TERMINI OF ORAI1. To identify regions of Orai1 important for activation by CAD, we characterized the binding of CAD to Orai1 using two approaches. First we expressed fusions of NubG with the N-terminus, the II-III cytoplasmic loop and the C-terminus of Orai1 in yeast together with different CAD-Cub-LV constructs. […] Based on the level of b-gal activity, CAD appears to interact with the Orai1 C-terminus with a higher affinity than with the N-terminus.

T1 sequence (Q13586 342-448): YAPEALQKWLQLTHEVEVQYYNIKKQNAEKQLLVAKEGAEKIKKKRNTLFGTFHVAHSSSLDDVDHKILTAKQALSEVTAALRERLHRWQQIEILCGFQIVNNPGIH

- binding result: no binding
B1: Orai1 1-70, expressed in HEK 293T cells (other)
chain: MHPEPAPPPSRSSPELPPSGGSTTSGSRRSRRRSGDGEPPGAPPPPPSAVTYPDWIGQSYSEVMSLNEHS
notes: not shown: The detection tag of the HEK construct (probably N-terminal YFP)
